# Patent publication US20230125173A1
# Legend:
# [1] = target: IL2Rβ and common γ chain on 32Dβ cells; assay: cell-based or functional assay
# TGFβ1 (R&D systems) = TGFβ1 (R&D systems) (UniProt P01137); assay: cell-based or functional assay
# UniProt P01137, sequence (P01137 279-390 limits assumed): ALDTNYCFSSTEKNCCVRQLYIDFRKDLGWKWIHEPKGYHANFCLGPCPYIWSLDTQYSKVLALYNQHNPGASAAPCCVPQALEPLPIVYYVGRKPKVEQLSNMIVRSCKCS
Substance,"EC50, 32Dβ cell proliferation (WST1, absorbance at 450 nM) [1] [nM]","IC50, inhibition of TGFβ1 (0.1nM stock) activity in HEK-Blue TGFβ reporter cells, QUANTI-Blue OD 620-655 nM (TGFβ1 (R&D systems)) [nM]"
recombinant IL-15 (from UniProt P40933 49-162) (ligand),0.0106,–
TGFR-Fc (R&D Systems) (Fc fusion),–,0.461
